The text below walks through data of EP1808439A2.

This experiment deals with epiligrin-ECM^t (trypsin-treated HFK-ECM) (human) (UniProt Q16787). Nature of the experiment: cell-based or functional assay.
Chain of UniProt Q16787 (Q16787 other isoform, or with tags, fused parts or gaps): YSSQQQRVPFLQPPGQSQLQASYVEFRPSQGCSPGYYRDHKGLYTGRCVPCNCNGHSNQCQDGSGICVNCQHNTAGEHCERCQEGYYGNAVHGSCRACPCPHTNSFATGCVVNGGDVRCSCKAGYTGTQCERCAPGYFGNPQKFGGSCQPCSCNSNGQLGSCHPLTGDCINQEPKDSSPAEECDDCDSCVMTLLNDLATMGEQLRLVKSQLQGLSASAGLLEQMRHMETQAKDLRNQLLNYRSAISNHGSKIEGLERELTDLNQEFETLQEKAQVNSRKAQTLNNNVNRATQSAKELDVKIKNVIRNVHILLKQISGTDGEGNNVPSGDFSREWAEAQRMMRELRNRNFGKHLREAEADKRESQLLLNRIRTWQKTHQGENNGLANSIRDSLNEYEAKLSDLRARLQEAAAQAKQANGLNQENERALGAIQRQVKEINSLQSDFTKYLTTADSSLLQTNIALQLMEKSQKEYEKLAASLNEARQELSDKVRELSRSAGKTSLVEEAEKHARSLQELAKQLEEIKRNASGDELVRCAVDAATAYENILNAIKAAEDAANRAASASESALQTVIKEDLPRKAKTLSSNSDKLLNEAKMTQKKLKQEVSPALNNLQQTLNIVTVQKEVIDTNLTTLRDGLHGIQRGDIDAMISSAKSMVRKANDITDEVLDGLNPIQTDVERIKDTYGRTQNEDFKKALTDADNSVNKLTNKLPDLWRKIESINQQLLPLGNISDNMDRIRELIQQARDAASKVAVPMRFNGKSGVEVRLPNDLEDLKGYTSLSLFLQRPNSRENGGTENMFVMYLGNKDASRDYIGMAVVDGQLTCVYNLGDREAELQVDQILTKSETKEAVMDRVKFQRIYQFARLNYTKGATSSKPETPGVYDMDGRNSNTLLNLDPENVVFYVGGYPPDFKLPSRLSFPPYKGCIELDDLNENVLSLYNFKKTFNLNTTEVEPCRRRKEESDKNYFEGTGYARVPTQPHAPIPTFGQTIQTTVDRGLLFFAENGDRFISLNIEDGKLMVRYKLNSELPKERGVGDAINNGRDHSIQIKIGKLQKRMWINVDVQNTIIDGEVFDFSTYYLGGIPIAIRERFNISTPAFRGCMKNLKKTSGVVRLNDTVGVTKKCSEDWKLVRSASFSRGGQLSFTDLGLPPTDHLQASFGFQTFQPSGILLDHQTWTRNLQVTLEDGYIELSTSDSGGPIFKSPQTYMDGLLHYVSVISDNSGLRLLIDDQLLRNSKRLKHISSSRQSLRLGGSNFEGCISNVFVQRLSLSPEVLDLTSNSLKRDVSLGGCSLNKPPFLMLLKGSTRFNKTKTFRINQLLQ

On to “integrin α6β4, P23229 24-1130; P16144 28-1822”, for which the % adherent cells, 51Cr-labelled HFK on epiligrin-ECM^t, 4°C, 0 min came out at 30%; the % adherent cells, 51Cr-labelled HFK on epiligrin-ECM^t, 4°C, 2 min is 28%; the % adherent cells, 51Cr-labelled HFK on epiligrin-ECM^t, 4°C, 5 min turned out to be 28%; the % adherent cells, 51Cr-labelled HFK on epiligrin-ECM^t, 4°C, 10 min came to 25%. This substance registered a % adherent cells, 51Cr-labelled HFK on epiligrin-ECM^t, 4°C, 15 min of 37%; a % adherent cells, 51Cr-labelled HFK on epiligrin-ECM^t, 4°C, 25 min of 35%; a % adherent cells, 51Cr-labelled HFK on epiligrin-ECM^t, 4°C, 30 min of 31%; a % adherent cells, 51Cr-labelled HFK on epiligrin-ECM^t, 4°C, 45 min of 30%. The same substance returned a % adherent cells, 51Cr-labelled HFK on epiligrin-ECM^t, 4°C, 60 min of 35%; a % adherent cells, 51Cr-labelled HFK on epiligrin-ECM^t, 37°C, 0 min of 0%; a % adherent cells, 51Cr-labelled HFK on epiligrin-ECM^t, 37°C, 2 min of 10%; a % adherent cells, 51Cr-labelled HFK on epiligrin-ECM^t, 37°C, 5 min of 10%. This substance also showed a % adherent cells, 51Cr-labelled HFK on epiligrin-ECM^t, 37°C, 10 min of 20%; a % adherent cells, 51Cr-labelled HFK on epiligrin-ECM^t, 37°C, 15 min of 26%; a % adherent cells, 51Cr-labelled HFK on epiligrin-ECM^t, 37°C, 25 min of 36%; a % adherent cells, 51Cr-labelled HFK on epiligrin-ECM^t, 37°C, 30 min of 38%. The substance further had a % adherent cells, 51Cr-labelled HFK on epiligrin-ECM^t, 37°C, 45 min of 50% and a % adherent cells, 51Cr-labelled HFK on epiligrin-ECM^t, 37°C, 60 min of 60%.
